From patent publication US20250177557A1, “METHODS OF PRODUCING MICROBUBBLE DRUG CONJUGATES, VIRAL GENE THERAPY MICROBUBBLE CONJUGATES AND TARGETED MICROBUBBLES” (priority 2022, published 2025)

System: human SHSY-5Y cells
Experiment: Neuroprotection of differentiated SHSY-5Y cells against parkinsonian neurotoxins (CFDA cell viability)
Type: cell-based
Settings: pre-treatment, rhGDNF 50 ng/ml, CDNF-MDCs 25-250 ng/ml
Description: Neuroprotection was tested in the well-established neuronal model of human SHSY-5Y cells (Lopes, F. M.,. et al. (2010) Brain Res. 1337, 85-94) treated with parkinsonian neurotoxins. Human SHSY-5Y cells were grown in 24 well dishes and differentiated into neuron-like cells by treatment with 10 μM retinoic acid (RA) for 7 days (FIG. 8A).
Cell viability was quantified by the CFDA assay as described previously (Sandhu, J. K., et al. (2009) Neurobiol. Dis. 33, 405-414.).
Recombinant human GDNF at 50 ng/ml was used as a positive control.

B1: rhGDNF: Recombinant human GDNF, positive control (protein, UniProt P39905 78-211, looked up)
Glial cell line-derived …: SPDKQMAVLPRRERNRQAAAANPENSRGKGRRGQRGKNRGCVLTAIHLNVTDLGLGYETKEELIFRYCSGSCDAAETTYDKILKNLSRNRRLVSDKVGQACCRPIAFDDDLSFLDDNLVYHILRKHSAKRCGCI
- Neuroprotection against thapsigargin (cell viability) (1.0 μM thapsigargin ~16 h): protected from cell death
- Neuroprotection against MPP+ (cell viability) (1.0 mM MPP+ ~16 h): protected from cell death
